± gives the standard deviation of the averaged measurements.
Test system: ATP
Experiment: switch fluorescence ratio, 500 uM ATP over buffer (Cy3 cluster intensity, sum of 5 cycles each) (fold (ratio)); higher = stronger signal-on switching upon ATP binding; sequences stand for … in TCGTCGGCAGCGTCAGATGTGTATAAGAGACAGTTTTTTTTTTTTTTTTTTTTTTTTT…TC
Details: aptamer strand: ATP DNA aptamer (quencher-CACCTGGGGGAGTATTGCGGAGGAAGG + anchor), 100 nM annealed; ATP concentration: 500 uM
Procedure, shortened: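 After annealing to 100 nM quencher-labelled ATP aptamer, Cy3-labelled switching-strand clusters on a modified Illumina MiSeq flow-cell were imaged in selection buffer. A second image followed after 15 min with 500 uM ATP at 22 °C, and five such buffer/ATP cycles were done, each separated by NaOH stripping and re-annealing. The fluorescence ratio, averaged per switch-domain sequence, is summed target-cycle over summed buffer-cycle Cy3 intensity per cluster, with clusters outside 100-1000 RFU excluded.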
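Also: ATP exposure 15 min at 22 °C before imaging.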

Sequence	switch fluorescence ratio
GGTTCACGGT	0.994 ± 0.026
TTCCTTCTTT	1.08 ± 0.061
TTCGGGTCGC	0.963 ± 0.049
TTCGTGCGAT	1.04 ± 0.013
TCAGACTCAG	0.992 ± 0.021
GGTTTCGGGC	1.03 ± 0.044
ACCCTCGAGA	1.06 ± 0.06
CGGGAAGTTC	1.03 ± 0.016
TAATTGTAGG	0.98 ± 0.032
CATTAGAATC	0.997 ± 0.028
GGCATAGGTA	1.01 ± 0.012
ATTGATTTAT	0.987 ± 0.045
AGGGGGGCAC	0.984 ± 0.025
GAGGGGTAAG	1 ± 0.015
TGGTTCGGAA	1.016 ± 0.0048
TGGCGCTTGT	0.978 ± 0.028
ATTTGGATGT	1 ± 0.026
GAGTGACTTG	1.017 ± 0.0089
TTCAGTGATT	1 ± 0.022
CCAGACGTTT	1.037 ± 0.0073
ACGGTTTCGT	1.01 ± 0.014
GAATCGGGGA	1.012 ± 0.0031
GGACAGTGAT	1.01 ± 0.034
AGTAGTTGCC	1.014 ± 0.0021
TAGGGTGCGT	1 ± 0.027
AAGTTTATAG	1.03 ± 0.0066

Sequence	switch fluorescence ratio
GAGGGGAAGT	0.9982 ± 0.004
AGATCGTTGT	0.978 ± 0.028
AAGGCGGGGA	1.017 ± 0.0051
ATGTTGGTAT	1 ± 0.022
CAGTTTGTTT	0.9881 ± 0.0031
CTATGTCAAC	1.06 ± 0.023
TGGGTTATGG	0.972 ± 0.016
ACGCCGGGCT	1.07 ± 0.054
TATTGTTTCG	1.02 ± 0.029
AAGAAAAGGA	1.02 ± 0.017
GGATAGGTAT	1.02 ± 0.066
CGCCACTGTG	1.06 ± 0.044
ATTGTAGACC	1.0225 ± 0.00081
AAGGTCTTTA	1 ± 0.035
ATGTCAAGGA	0.985 ± 0.042
GTTGGTTGTA	0.987 ± 0.057
GGTTAAAGAA	1.004 ± 0.0082
TTTTATGCTT	0.97025 ± 0.00037
ACGTAGTGTC	1.03 ± 0.018
TTTTTGATAA	0.9683 ± 0.0063
CGTTTAGTAG	1.03 ± 0.013
ATGTATAGAG	1.03 ± 0.026
GGATTATGGC	0.943 ± 0.061
ACTGGGGTTA	0.9786 ± 0.0021
TTCGGGAATA	1.03 ± 0.022
AGGTTGTTGG	0.966 ± 0.016

Sequence	switch fluorescence ratio
CTAGTCTGAA	0.982 ± 0.031
GTTGACGGGG	1.01 ± 0.021
AAGGATTAGA	0.987 ± 0.02
TTAGGACCCT	1.01 ± 0.041
ATGGTAACGT	1.01 ± 0.044
AAGTAGTGGG	0.96 ± 0.028
ACTTTGCGGT	1.078 ± 0.0015
GGGAAGTTTG	1 ± 0.038
AGTTGCGGTC	0.9516 ± 0.0041
GAAAGGGTTA	0.9898 ± 0.0085
AGTTTGGTTG	0.991 ± 0.053
TTAGAGGACT	1.01 ± 0.025
TGTCTCGCCC	1.02 ± 0.024
AGGATAACCG	1.028 ± 0.0012
TATGTATCCG	1.03 ± 0.062
TGTTAAATGA	0.97 ± 0.013
CAATACTTG	1.027 ± 0.0074
CAGGCGCAGG	1.06 ± 0.051
TTATCCAAAG	0.966 ± 0.016
TAGACGGGGA	0.984 ± 0.046
AATGATGGGT	0.985 ± 0.019
TTGGGCCTGG	0.9806 ± 0.0061
CCGTTGAAGG	1.01 ± 0.016
ACTAGTAACG	0.9938 ± 0.0098
CCGGGGGGTG	1.07 ± 0.066
TTTTTAGTGT	1.01 ± 0.035

Sequence	switch fluorescence ratio
AGTTTTGAGA	0.983 ± 0.022
GGGGTATCCA	1.03 ± 0.03
ACAAAGATGA	0.973 ± 0.015
TAGCCTAGGT	1.02 ± 0.017
GCGGAGGGGT	1.02 ± 0.049
AAGTCTAAGG	0.964 ± 0.05
ATTAGGGGGT	0.988 ± 0.036
ATAAAGGGCG	1.029 ± 0.01
TGAACAAATG	1.04 ± 0.11
TGAGTGTTTT	0.997 ± 0.027
GCGTGACCGC	0.995 ± 0.04
GGGGGGGTC	0.979 ± 0.019
GGGGATCCCC	1.03 ± 0.019
GCCAAGTTCG	0.9787 ± 0.0072
ATTTCAGATA	1.01 ± 0.02
ATGTTACCGG	1.054 ± 0.0038
ATCGGGGTC	0.983 ± 0.027
TAATATTTCG	1.05 ± 0.04
TTTATGATGC	1.011 ± 0.0092
CATTTGTGGC	0.961 ± 0.058
AAAGGGAAT	1.02 ± 0.021
TCATCTGTTG	1 ± 0.033
ATGACTGATA	1.028 ± 0.0038
CGTGTTTCGG	0.97715 ± 0.00018
ACAGTAACTT	1.092 ± 0.0098
CGAGTTGATC	0.973 ± 0.028

Sequence	switch fluorescence ratio
TGAGTTCGAA	1 ± 0.028
CGAAACTTTG	0.974 ± 0.046
TGGGTGAGGG	1 ± 0.0037
ATCGGGCGTA	1.01 ± 0.044
ATTAAGTGTG	0.99638 ± 0.00091
TAGCCGACGG	1.03 ± 0.058
TGAAGTTCGC	0.969 ± 0.021
GGGATTATAT	1.02 ± 0.032
TCGAAAAAGG	1.0045 ± 8.5e-06
AATTTGTAGA	0.9996 ± 0.0047
ATTATTCGGT	0.986 ± 0.013
TCCTGTGGGT	0.99 ± 0.036
CCGAGTGGGT	1.44 ± 0.57
GCACTTTTTG	0.99 ± 0.049
TTTTTTGGCA	0.982 ± 0.035
TCGTTAGGTG	1.03 ± 0.025
TTTTATTAAA	1 ± 0.031
TTTTCAATCG	1.01 ± 0.045
TTATTGGGGG	0.982 ± 0.037
GCGGATAAGC	1.01 ± 0.039
AGCGGGTCCG	0.987 ± 0.017
AGGGTTAGTC	1.03 ± 0.058
TCGTTTAATT	0.994 ± 0.04
TTAATTTATT	0.987 ± 0.035
AACAAATGGG	1.02 ± 0.052
GCCGAAGTCG	1.02 ± 0.025

Sequence	switch fluorescence ratio
CATGGTGAGC	0.956 ± 0.041
TAGTTTTAT	0.973 ± 0.016
CCTGATAATT	1.02 ± 0.02
ACACTACGTC	1.51 ± 0.056
TGATATCACT	0.996 ± 0.043
AATGTTTATT	0.954 ± 0.01
CTTATAATTG	0.9935 ± 0.00017
CTGGGTAGGG	1.008 ± 0.01
TTCCAAAATG	1.005 ± 0.0081
TTGTAAATCG	0.975 ± 0.02
GGGAATCGTG	0.983 ± 0.012
CTGGGTCTGA	1.02 ± 0.026
AATATTACTA	1.007 ± 0.0041
GCAATAATTT	2.83 ± 0.52
TTTAGATTGT	1.01 ± 0.029
TTCCAGATTT	1.02 ± 0.062
CGGTTTTCTT	0.995 ± 0.012
ATATTTGGTT	0.985 ± 0.034
TATTTTTTAG	0.96 ± 0.013
GGGGGCCGTT	0.977 ± 0.058
AAGAACTTAG	1.026 ± 0.0074
GACAGATATG	0.979 ± 0.081
TACCTTCGTT	1.04 ± 0.073

Reference: the supplement of paper PMC10126150
